Laboratory results from the supplement of paper PMC9233669.
Fewer inactive variants are shown than the library holds.

How the values were obtained:
biotinyl-Phe-oxazolone = assay: self-aminoacylation, catalytic enhancement (BFO) (fold over background); higher = more active; k-Seq, kA / k0A0; sequences stand for … in GGGAAUGGAUCCACAUCUACGAAUUC…UUCACUGCAGACUUGACGAAGCUG
Method in brief: (§1)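 Catalytic enhancement equals the median kA over the uncatalyzed rate, the latter read from the low-activity peak of a bimodal Gaussian fit. Values of kA came from fitting each sequence's fraction reacted to a pseudo-first-order model, with 1000 bootstraps. Reacted RNA was captured with streptavidin and quantified by triplicate qPCR and Illumina sequencing after 90 minutes at room temperature with 2–1250 μM biotinyl-aminoacyl-oxazolone and 0.43 μM mutagenized RNA pools bearing a 21-nt variable region.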

biotinyl-Leu-oxazolone = assay: self-aminoacylation, catalytic enhancement (BLO) (fold over background); higher = more active; k-Seq, kA / k0A0; sequences stand for … in GGGAAUGGAUCCACAUCUACGAAUUC…UUCACUGCAGACUUGACGAAGCUG
Method in brief: as §1

biotinyl-Trp-oxazolone = assay: self-aminoacylation, catalytic enhancement (BWO) (fold over background); higher = more active; k-Seq, kA / k0A0; sequences stand for … in GGGAAUGGAUCCACAUCUACGAAUUC…UUCACUGCAGACUUGACGAAGCUG
Method in brief: as §1

biotinyl-Val-oxazolone = assay: self-aminoacylation, catalytic enhancement (BVO) (fold over background); higher = more active; k-Seq, kA / k0A0; sequences stand for … in GGGAAUGGAUCCACAUCUACGAAUUC…UUCACUGCAGACUUGACGAAGCUG
Method in brief: as §1

biotinyl-Ile-oxazolone = assay: self-aminoacylation, catalytic enhancement (BIO) (fold over background); higher = more active; k-Seq, kA / k0A0; sequences stand for … in GGGAAUGGAUCCACAUCUACGAAUUC…UUCACUGCAGACUUGACGAAGCUG
Method in brief: as §1

biotinyl-Met-oxazolone = assay: self-aminoacylation, catalytic enhancement (BMO) (fold over background); higher = more active; k-Seq, kA / k0A0; sequences stand for … in GGGAAUGGAUCCACAUCUACGAAUUC…UUCACUGCAGACUUGACGAAGCUG
Method in brief: as §1

Sequence	self-aminoacylation (biotinyl-Phe-oxazolone)	self-aminoacylation (biotinyl-Leu-oxazolone)	self-aminoacylation (biotinyl-Trp-oxazolone)	self-aminoacylation (biotinyl-Val-oxazolone)	self-aminoacylation (biotinyl-Ile-oxazolone)	self-aminoacylation (biotinyl-Met-oxazolone)
AAGUUUCCUAGUAGUCGCAAG [Fam3.1 aminoacylation ribozyme variant]	1.27	1.06	0.668	1.44	1.12	1.2
AAGUUUCCUAUUAGUCGCAAG [Fam3.1 aminoacylation ribozyme variant]	1.87	1.22	1.35	1.32	1.29	1.24
AAGUUUGAGAAUAGUCGCAAG [Fam3.1 aminoacylation ribozyme variant]	2.05	1.25	1.59	1.29	1.48	1.2
AAGUUUGAUAAUAGACGCAAG [Fam3.1 aminoacylation ribozyme variant]	0.787	0.311	0.331	0.418	0.364	0.346
AAGUUUGAUAAUAGUCGGAAG [Fam3.1 aminoacylation ribozyme variant]	0.778	0.536	0.436	0.572	0.514	0.556
AAGUUUGAUAAUCGUCGCAAG [Fam3.1 aminoacylation ribozyme variant]	1.99	1.26	1.43	1.13	1.54	1.25
AAGUUUGCAAAUAGUCACAAG [Fam3.1 aminoacylation ribozyme variant]	0.954	0.949	0.887	0.982	1.05	1.11
AAGUUUGCAAAUAGUCGCAAA [Fam3.1 aminoacylation ribozyme variant]	0.845	1.79	1.21	1.62	1.67	1.52
AAGUUUGCAAAUAGUCGCAAG [Fam3.1 aminoacylation ribozyme variant]	1.03	0.665	0.789	0.752	0.763	0.734
AAGUUUGCAAAUAGUCGCAAU [Fam3.1 aminoacylation ribozyme variant]	2.03	1.27	1.78	1.26	1.35	1.64
AAGUUUGCCAAUAGGCGCAAG [Fam3.1 aminoacylation ribozyme variant]	1.05	1.15	0.799	1.02	1.04	0.885
AAGUUUGCCAAUAGUCGCAUG [Fam3.1 aminoacylation ribozyme variant]	1.7	1.45	1.56	1.59	1.5	1.79
AAGUUUGCCAAUAGUCGCGAG [Fam3.1 aminoacylation ribozyme variant]	11.6	2.25	3.77	2.09	1.61	1.96
AAGUUUGCCAAUAGUUGCAAG [Fam3.1 aminoacylation ribozyme variant]	1.39	0.958	0.808	0.866	0.948	0.895
AAGUUUGCCAAUAUUCGCAAG [Fam3.1 aminoacylation ribozyme variant]	3.77	1.07	1.45	1.07	1.51	1.35
AAGUUUGCCACUAGUCGCAAG [Fam3.1 aminoacylation ribozyme variant]	0.709	0.973	0.807	1.15	0.918	0.991
AAGUUUGCCUAUAGUCGCAAG [Fam3.1 aminoacylation ribozyme variant]	0.956	0.718	0.784	0.981	0.844	0.706
AAGUUUGCGAAUAGUCGAAAG [Fam3.1 aminoacylation ribozyme variant]	0.796	1.11	0.83	0.733	1.05	1.17
AAGUUUGCGAAUAGUCGCAUG [Fam3.1 aminoacylation ribozyme variant]	1.13	1.23	1	1.08	1.1	1.04
AAGUUUGCUAAAAGUCGUAAG [Fam3.1 aminoacylation ribozyme variant]	25.8	0.982	6.5	0.971	1.12	1.28
AAGUUUGCUAAAGGUCGCAAG [Fam3.1 aminoacylation ribozyme variant]	1.14	0.716	0.835	0.625	0.687	0.931
AAGUUUGCUAACCGUCGCAAG [Fam3.1 aminoacylation ribozyme variant]	0.981	0.755	0.488	0.754	0.714	0.567
AAGUUUGCUAAGAGUCGAAAG [Fam3.1 aminoacylation ribozyme variant]	1.3	0.602	0.757	0.785	0.804	0.817
AAGUUUGCUAAGAGUCGCAAU [Fam3.1 aminoacylation ribozyme variant]	1.24	1.05	1.74	1.01	1.42	0.797
AAGUUUGCUAAGAGUCGCAUG [Fam3.1 aminoacylation ribozyme variant]	1.82	1.03	1.69	1.1	0.902	1.07
AAGUUUGCUAAGAGUGGCAAG [Fam3.1 aminoacylation ribozyme variant]	0.543	0.724	0.872	1.11	0.861	0.955
